Laboratory results taken from doi:10.1101/2022.06.09.495453.

Molecular target: SHLD2^1-95 (human)
Assay: SEC-MALS

REV7 of the SHLD3-SHLD2^1-95-REV7 ternary complex (Shieldin), sequence (Q9UI95 whole entry, one chain of several): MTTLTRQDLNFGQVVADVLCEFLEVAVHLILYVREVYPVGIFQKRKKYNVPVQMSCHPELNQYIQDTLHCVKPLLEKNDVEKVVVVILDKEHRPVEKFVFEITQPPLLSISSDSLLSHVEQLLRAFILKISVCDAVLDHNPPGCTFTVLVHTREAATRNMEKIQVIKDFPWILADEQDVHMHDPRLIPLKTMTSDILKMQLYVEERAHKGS

stoichiometry N (REV7 per SHLD2^1-95): 2
Substance: REV7 of the SHLD3-SHLD2^1-95-REV7 ternary complex (Shieldin) (from UniProt Q9UI95 1-211) (natural protein)
